According to PMC3902040:

Target: Factor H (CFH) (human) (UniProt P08603)
Assay: SPR

UniProt P08603, sequence (P08603 19-1231): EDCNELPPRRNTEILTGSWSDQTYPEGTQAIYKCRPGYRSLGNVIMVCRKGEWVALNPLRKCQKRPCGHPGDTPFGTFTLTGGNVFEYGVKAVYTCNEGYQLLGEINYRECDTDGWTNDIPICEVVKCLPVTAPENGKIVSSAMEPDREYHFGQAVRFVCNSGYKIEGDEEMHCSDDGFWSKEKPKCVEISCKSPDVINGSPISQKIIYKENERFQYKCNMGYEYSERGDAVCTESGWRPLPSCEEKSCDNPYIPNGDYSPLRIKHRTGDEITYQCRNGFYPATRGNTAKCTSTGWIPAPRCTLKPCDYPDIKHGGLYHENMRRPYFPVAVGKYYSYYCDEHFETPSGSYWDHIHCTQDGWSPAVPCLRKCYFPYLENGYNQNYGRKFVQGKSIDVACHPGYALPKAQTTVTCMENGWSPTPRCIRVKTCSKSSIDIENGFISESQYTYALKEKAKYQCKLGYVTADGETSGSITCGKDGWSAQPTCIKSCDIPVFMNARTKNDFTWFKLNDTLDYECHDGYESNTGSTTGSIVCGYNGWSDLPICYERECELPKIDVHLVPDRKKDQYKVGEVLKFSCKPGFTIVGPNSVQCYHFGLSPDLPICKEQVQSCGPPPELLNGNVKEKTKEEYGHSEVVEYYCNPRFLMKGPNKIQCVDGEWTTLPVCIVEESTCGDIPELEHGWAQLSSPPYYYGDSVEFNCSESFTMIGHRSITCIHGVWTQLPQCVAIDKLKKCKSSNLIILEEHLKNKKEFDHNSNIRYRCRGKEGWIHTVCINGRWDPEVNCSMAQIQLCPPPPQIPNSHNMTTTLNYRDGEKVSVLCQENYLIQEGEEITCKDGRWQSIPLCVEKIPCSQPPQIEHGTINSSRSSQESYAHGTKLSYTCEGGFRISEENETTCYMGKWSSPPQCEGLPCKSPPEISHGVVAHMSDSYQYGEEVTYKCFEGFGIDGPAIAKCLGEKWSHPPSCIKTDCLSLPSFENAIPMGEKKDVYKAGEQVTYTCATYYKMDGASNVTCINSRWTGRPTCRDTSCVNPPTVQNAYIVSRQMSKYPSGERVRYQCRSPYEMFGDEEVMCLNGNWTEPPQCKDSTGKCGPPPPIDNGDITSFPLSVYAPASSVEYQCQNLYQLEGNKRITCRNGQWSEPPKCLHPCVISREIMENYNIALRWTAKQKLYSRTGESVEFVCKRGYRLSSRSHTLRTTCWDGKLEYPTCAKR

155Q C3 protein (C3 K155Q variant, rs147859257), methylamine-treated C3 (MA) (natural protein)
reduced binding against 155K C3 (percent): 60%
